Assay results taken from the supplement of paper PMC11136658.

Test system: peptide library, one residue held at a place counted from the Y acceptor
Test: relative phosphorylation of the sub-library (ratio to the mean residue at this position); higher = residue favoured
Procedure, shortened: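 Purified recombinant kinases were given 50 μM ATP with γ-32P-ATP and biotinylated Tyr-centred peptide library mixtures for 90 min in 384-well plates. Peptides bound to streptavidin membranes were rinsed and quantified by phosphorimaging, and intensities were normalized per position by the sum of the 18 randomized residues (16 with the Ser/Thr-free library) and multiplied by that number. The reported values are phosphorylation relative to the mean randomized residue.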

Sequence of MKK4, construct: aa34-end, human (P45985 34-399, looked up): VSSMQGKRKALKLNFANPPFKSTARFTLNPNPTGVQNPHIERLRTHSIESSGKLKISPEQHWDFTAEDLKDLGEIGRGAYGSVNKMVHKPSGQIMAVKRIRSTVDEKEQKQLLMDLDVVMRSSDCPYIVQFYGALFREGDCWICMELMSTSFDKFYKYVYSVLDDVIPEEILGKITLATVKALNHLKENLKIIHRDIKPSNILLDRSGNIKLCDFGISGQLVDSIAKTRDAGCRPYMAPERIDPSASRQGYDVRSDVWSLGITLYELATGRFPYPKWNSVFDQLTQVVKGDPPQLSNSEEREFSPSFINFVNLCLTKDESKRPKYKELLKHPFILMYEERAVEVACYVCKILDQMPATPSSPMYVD
Sequence of LYN, construct: Full length, human (P07948 whole entry, looked up): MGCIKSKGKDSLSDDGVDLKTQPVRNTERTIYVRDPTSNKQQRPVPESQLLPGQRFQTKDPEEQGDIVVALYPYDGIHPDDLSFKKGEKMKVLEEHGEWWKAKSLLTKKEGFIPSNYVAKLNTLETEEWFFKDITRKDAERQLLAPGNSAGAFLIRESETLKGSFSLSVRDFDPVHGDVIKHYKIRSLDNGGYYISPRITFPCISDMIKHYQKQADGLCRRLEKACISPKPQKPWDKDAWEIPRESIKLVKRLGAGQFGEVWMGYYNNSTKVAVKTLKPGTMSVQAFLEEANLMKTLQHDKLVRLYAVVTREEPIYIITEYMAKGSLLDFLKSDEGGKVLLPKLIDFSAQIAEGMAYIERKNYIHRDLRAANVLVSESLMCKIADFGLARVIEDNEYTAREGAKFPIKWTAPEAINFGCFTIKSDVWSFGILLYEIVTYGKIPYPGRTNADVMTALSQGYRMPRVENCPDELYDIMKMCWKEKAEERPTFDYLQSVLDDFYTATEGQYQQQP

LYN, construct: Full length, human (from UniProt P07948)
relative phosphorylation
Conditions	at +1	at +2	at +3	at +4	at +5	at -1	at -2	at -3	at -4	at -5
A fixed	1.69	0.956	0.493	0.796	0.932	0.577	1.02	0.769	1.09	1.05
D fixed	0.936	0.672	0.237	0.582	0.535	0.838	1.44	1.77	1.3	1.27
E fixed	1.64	1.58	0.258	0.623	0.514	1.1	1.63	2.4	1.61	1.09
F fixed	0.757	1.12	3.21	1.07	1.48	1.27	0.808	1.09	1.44	1.06
G fixed	2.35	0.704	0.661	0.923	1	0.445	1.2	0.939	1.14	1.04
H fixed	0.807	0.613	0.68	1.22	0.988	0.505	0.773	0.703	0.641	0.871
I fixed	1.15	1.13	2.63	0.899	0.956	3.44	1.05	0.802	0.922	1.02
K fixed	0.22	0.682	0.443	1.25	1.21	0.21	0.489	0.427	0.582	0.805
L fixed	0.822	0.804	1.47	0.911	1.04	2.08	0.993	0.835	1.24	1.03
M fixed	1.04	0.935	0.896	1.09	0.848	0.982	0.635	0.992	0.992	1.07
N fixed	0.628	0.943	0.347	0.803	0.66	0.381	1.14	1.09	0.82	1.09
P fixed	0.226	0.911	0.638	1.06	1.28	0.791	1.14	1.24	0.991	1.03
Q fixed	1.1	0.963	0.352	1.14	0.778	0.463	1.03	0.917	1.19	1.09
R fixed	0.31	0.92	0.974	1.38	1.32	0.2	0.524	0.45	0.6	0.762
S fixed	1.05	1.31	0.507	0.974	1.05	0.413	1.16	0.905	0.721	0.833
T fixed	0.795	1.33	0.59	0.851	1.01	1.22	0.964	0.823	0.669	0.765
V fixed	1.3	1.2	1.4	0.824	0.893	2.27	1.02	0.696	0.803	0.885
W fixed	1.18	1.22	2.21	1.61	1.5	0.811	0.977	1.15	1.25	1.23
pThr fixed	0.927	1.68	0.243	0.385	0.435	2.22	1.34	1.24	1.14	1.11
pTyr fixed	1.36	1.98	0.397	0.897	0.487	1.35	1.2	1.49	1.45	1.21

MKK4, construct: aa34-end, human (from UniProt P45985)
relative phosphorylation
Conditions	at +1	at +2	at +3	at +4	at +5	at -1	at -2	at -3	at -4	at -5
A fixed	1.14	0.979	0.996	1.06	0.902	0.986	1.01	0.916	1.11	1.06
D fixed	1.32	1.29	1.03	1.2	1.02	1.49	1.18	0.991	1.09	0.992
E fixed	1.26	1.05	1.16	1.05	1.18	1.2	1.17	0.898	1.09	1.06
F fixed	0.867	1.1	1.08	1.12	1.13	0.844	1.06	1.05	1.06	1.17
G fixed	1.49	1.25	1.12	1.15	1.18	1.58	1.02	0.961	1.2	1.18
H fixed	0.87	0.959	0.981	1.22	1.04	0.866	0.994	1.01	1	1.11
I fixed	0.748	0.79	0.796	0.795	0.79	0.898	0.72	0.833	0.785	0.884
K fixed	0.786	0.846	0.923	0.837	0.909	0.638	1.09	1.07	0.878	0.915
L fixed	0.892	0.859	0.806	0.855	0.941	1.03	0.974	0.991	0.905	0.905
M fixed	1.05	0.907	0.949	0.904	0.88	1.11	0.922	0.934	0.918	0.873
N fixed	0.957	1.03	0.898	0.844	0.9	0.905	0.983	0.939	0.86	0.984
P fixed	1.11	1.32	1.34	1.37	1.22	1.04	1.05	0.928	1.08	1.09
Q fixed	0.87	0.893	0.854	0.753	0.858	0.885	0.856	1.04	0.977	0.902
R fixed	0.865	0.941	0.977	0.907	1.05	0.771	0.958	1.41	1.02	0.97
V fixed	0.775	0.779	0.826	0.761	0.775	0.694	0.792	0.736	0.771	0.713
W fixed	0.999	1.02	1.27	1.18	1.21	1.06	1.21	1.28	1.24	1.2
pThr fixed	1.17	1.23	1.15	1.21	1.07	1.05	0.96	1.2	1.29	1.18
pTyr fixed	1.25	0.974	1.18	0.991	1.22	2.13	1.28	1.25	1.18	1.18
